Reference: the supplement of paper PMC7125110
± gives the standard error. Variants at the floor of the assay were thinned out.

B1: glmS ribozyme (parent)
chain: AUAAAAGCGCCAGAACUACAGAAAUGUAGUUGACGAGGAGGAGGUUUAUCGAAUUUUCGGCGGAUGCCUCCAAA

Variants of: B1
Assay: self-cleavage kobs at 2500 uM GlcN6P; higher = faster cleavage; RNA array
Conditions: with glucosamine-6-phosphate
Summary of the method: (§1)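 Barcoded ribozyme variants, transcribed in situ by E. coli RNA polymerase on sequenced MiSeq chips, were followed via a hybridised Cy3 probe at 37 °C. Glucosamine-6-phosphate ranged from 40 μM to 10 mM in HEPES/KCl/Mg(OAc)2 buffer. kobs came from decay fits to per-tile medians, and kcat and KM from weighted Michaelis–Menten fits.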

Variant	self-cleavage kobs at 2500 uM GlcN6P
AUAAAAGCGCCAGAACUACAGAAAUGUAGGUGACGAGGAGGAGGUUUAUCGAAUUUUCGGCGGGUGGCUCCAAA [U30G A64G C67G]	6.44e-05 ± 3e-05 s⁻¹
AUAAAAGCGCCAGAACUACAGAAAUGUAGCUGAGGAGGAGGAGCUUUAUCGAAUUUGCGGCGGAUGCCUUCAAA [U30C C34G G44C U57G C70U]	< 1e-05 s⁻¹
AUAAAAGCGCCAGAACUACAGAAAUGUAGUCGACGAGGAGGAGGUUUACCGAAUUUUCGGCGGAGGCCUCCAAA [U31C U49C U65G]	< 1e-05 s⁻¹
AUAAAAGCGCCAGAACUACAGAAAUGUAGGUGACUAGGAGGAGGUUUAUCGAAUUUUCUGCGGAUGCCUCCAAA [U30G G35U G59U]	< 1e-05 s⁻¹
AUAAAAGCGCCAGAACUACAGAAAUGUAGUCGACGAGGAUGAGGUUUGUCGAAUUUUCGGUGGAUGCCUCCAAA [U31C G40U A48G C61U]	< 1e-05 s⁻¹
AUAAAAGCGCCAGAACUACAGAAAUGUAGUCGACAAGGAGGAGGUUUCUCGAAUUUUCGGCGGAUGCCUCCAAA [U31C G35A A48C]	< 1e-05 s⁻¹
AUAAAAGCGCCAGAACUACAGAAAUGUAGUAGACGUGGAGGAGGUUUAUCGAAUUUUCAGCGGAUGCCUCCAAA [U31A A36U G59A]	< 1e-05 s⁻¹
AUAAAAGCGCCAGAACUACAGAAAUGUAGCUGACGAGGAGGAGGUUUAUCGAAUUUUGGGCGGAUGCUUCCAAA [U30C C58G C68U]	0.000104 ± 2.9e-05 s⁻¹
AUAAAAGCGCCAGAACUACAGAAAUGUAGUCGACGAGGAUGAGGUGUAUCGAAUUUUCGGCGGAUGCCUCCAAA [U31C G40U U46G]	3.61e-05 ± 1.5e-05 s⁻¹
AUAAAAGCGCCAGAACUACAGAAAUGUAGUUAACGAGGAGGAGGUUUAUCGAUUUAUCGGCGGAUGCCUCUAAA [G32A A53U U56A C71U]	4.22e-05 ± 1e-05 s⁻¹
AUAAAAGCGCCAGAACUACAGAAAUGUAGUGGACGAAGAGGAGGUUUAUCGAAUUUUCGGCGGAUGUCUCCAAA [U31G G37A C67U]	5.28e-05 ± 1.6e-05 s⁻¹
AUAAAAGCGCCAGAACUACAGAAAUGUAGGUUACGAGGAGGAGGUUUAUCGAAUUUUCGGCGGAUGCCUCCAAA [U30G G32U]	0.000223 ± 6.5e-05 s⁻¹
AUAAAAGCGCCAGAACUACAGAAAUGUAGCUGACGAGGAGGAGGUUUAUCGAAUUUUCGGCGGAGGGCUCCAAA [U30C U65G C67G]	0.000128 ± 3.3e-05 s⁻¹
AUAAAAGCGCCAGAACUACAGAAAUGUAGUGGAGGAGGAGGAGGUUUAUCGAAUUUUCGGCGGGUGGCUCCAAA [U31G C34G A64G C67G]	< 1e-05 s⁻¹
AUAAAAGCGCCAGAACUACAGAAAUGUAGGUGACGAGGAGGAGGAUUAUCGAAUUUUGGGCGGAUGCCUCCAAA [U30G U45A C58G]	9.63e-05 ± 1.6e-05 s⁻¹
AUAAAAGCGCCAGAACUACAGAAAUGUAGUCGACGGGGAGAAGGUUUAUCGAAUUUUCGUCGGAUGCCUCCAAA [U31C A36G G41A G60U]	< 1e-05 s⁻¹

Variant	self-cleavage kobs at 2500 uM GlcN6P
AUAAAAGCGCCAGAACUACAGAAAUGUAGUAGUCGAGGAGGAGGUUUAUCGAAUUGUCGGCGGAGGCAUCCAAA [U31A A33U U56G U65G C68A]	< 1e-05 s⁻¹
AUAAAAGCGCCAGAACUACAGAAAUGUAGUGGACGAGGAGGAGGUUUAUCGAAUUUUCGGCGGAUGCCUCCGAA [U31G A72G]	0.00235 ± 0.00096 s⁻¹
AUAAAAGCGCCAGAACUACAGAAAUGUAGGUGAAGAGGAGGAGGUUUAUCGAAUUUUCGGCGGAUGCUUCCAAA [U30G C34A C68U]	< 1e-05 s⁻¹
AUAAAAGCGCCAGAACUACAGAAAUGUAGUCGACGAGGAGGAGGUUUAUCGAAUAUUCGGCGCAUGCCGCCAAA [U31C U55A G63C U69G]	0.000106 ± 3.8e-05 s⁻¹
AUAAAAGCGCCAGAACUACAGAAAUGUAGUAAACGAGGAGGAGGUUUAUCGAAUUUUCGGCGGGUGCCUCCAAA [U31A G32A A64G]	0.000169 ± 4.6e-05 s⁻¹
AUAAAAGCGCCAGAACUACAGAAAUGUAGGUGACGAGGACGAGGUGUAUCGAAUUUUCGGCGGAUGCCUCCAAA [U30G G40C U46G]	4.32e-05 ± 1.4e-05 s⁻¹
AUAAAAGCGCCAGAACUACAGAAAUGUAGCUGACGAGGAGGAGGUUUAUCGAAUUUUCGGCGAAUGCCGCCAAA [U30C G63A U69G]	8.06e-05 ± 3.9e-05 s⁻¹
AUAAAAGCGCCAGAACUACAGAAAUGUAGUGACCGAGGAGAAGGUUUGUCGAAUUUUCGGCGGAUGCCUCCAAA [U31G G32A A33C G41A A48G]	< 1e-05 s⁻¹
AUAAAAGCGCCAGAACUACAGAAAUGUAGGUGACGAGGAGUAGUUUUAUCGAAUUUUCGGCGGAUGCCUCCAAA [U30G G41U G44U]	< 1e-05 s⁻¹
AUAAAAGCGCCAGAACUACAGAAAUGUAGUUAACAAGGAGGAGGUUUAUCGAAUUUUCGGAGAAUGCCUUCAAA [G32A G35A C61A G63A C70U]	< 1e-05 s⁻¹
AUAAAAGCGCCAGAACUACAGAAAUGUAGUAGACGAGGAGGAGGUUUAUCGAAUUUUCGGCGGAUGCCUACAAA [U31A C70A]	5.68e-05 ± 1.7e-05 s⁻¹
AUAAAAGCGCCAGAACUACAGAAAUGUAGCUGACUAGGAGGAGGUUUAUCGAAUUUUCGGCGGACGCCUCCAAA [U30C G35U U65C]	< 1e-05 s⁻¹
AUAAAAGCGCCAGAACUACAGAAAUGUAGUCGACGAGGAGGAGGUUUAUCGACUCUUCGGCGGAUGCCUCCAAA [U31C A53C U55C]	0.000164 ± 5e-05 s⁻¹
AUAAAAGCGCCAGAACUACAGAAAUGUAGUCGACGCGGAGGAGGUUUAUCGAAUUUUCGGCGUAUGCAUCCAAA [U31C A36C G63U C68A]	0.000118 ± 4e-05 s⁻¹
AUAAAAGCGCCAGAACUACAGAAAUGUAGUGGACGAGCAGGAGAUUUAUCGAAUUUUCGGCGGAUGCCUCCAAA [U31G G38C G44A]	< 1e-05 s⁻¹
AUAAAAGCGCCAGAACUACAGAAAUGUAGUGGACGAGGAGGAGGUUUAGCGAAUUUUCCGCGGAUGCCUCCAAA [U31G U49G G59C]	< 1e-05 s⁻¹

Variants of: B1
Assay: self-cleavage kobs at 10000 uM GlcN6P; higher = faster cleavage; RNA array
Conditions: with glucosamine-6-phosphate
Summary of the method: as §1

Variant	self-cleavage kobs at 10000 uM GlcN6P
AUAAAAGCGCCAGAACUACAGAAAUGUAGUGGACGAAGAGGAGGUUUAUCGAAUUUUCGGCGGAUGUCUCCAAA [U31G G37A C67U]	0.000189 ± 3.7e-05 s⁻¹
AUAAAAGCGCCAGAACUACAGAAAUGUAGGUUACGAGGAGGAGGUUUAUCGAAUUUUCGGCGGAUGCCUCCAAA [U30G G32U]	0.000612 ± 0.00015 s⁻¹
AUAAAAGCGCCAGAACUACAGAAAUGUAGCUGACGAGGAGGAGGUUUAUCGAAUUUUCGGCGGAGGGCUCCAAA [U30C U65G C67G]	2.81e-05 ± 1.3e-05 s⁻¹
AUAAAAGCGCCAGAACUACAGAAAUGUAGGUGACGAGGAGGAGGAUUAUCGAAUUUUGGGCGGAUGCCUCCAAA [U30G U45A C58G]	0.000163 ± 4.1e-05 s⁻¹
AUAAAAGCGCCAGAACUACAGAAAUGUAGUGGACGAGGAGGAGGUUUAUCGAAUUUUCGGCGGAUGCCUCCGAA [U31G A72G]	0.00988 ± 0.0032 s⁻¹
AUAAAAGCGCCAGAACUACAGAAAUGUAGUAGACGAGGAGGAGGUUUAUCGAAUUUUCGGCGGAUGCCUACAAA [U31A C70A]	0.000146 ± 3e-05 s⁻¹
